Measured values published in the RNAGym collection of RNA variant scans (doi:10.7554/elife.80360).

B1: CPEB3 Ribozyme (parent)
chain: GGGGGCCACAGCAGAAGCGUUCACGUCGCGGCCCCUGUCAGAUUCUGGUGAAUCUGCGAAUUCUGCUGU

Variants of: B1
Experiment: self-cleavage, relative activity (ratio to wild type); higher = more cleavage; co-transcriptional

| Variant | self-cleavage |
| --- | --- |
| C7U C63A | 0.577 |
| A8C C66U | 1.02 |
| A8C C66G | 0.871 |
| C7U C45G | 1.02 |
| C7U C45A | 0.919 |
| C7U C45U | 0.892 |
| C7G G41U | 0.121 |
| C7U G37U | 0.214 |
| C7U G19A | 0.113 |
| C7U G19C | 0.155 |
| C7U G19U | 0.247 |
| A8C A40G | 0.958 |
| A8C A40U | 0.868 |
| A8C A51U | 1.01 |
| A8C C54U | 1 |
| A8C C54G | 0.876 |
| C7G G47A | 0.452 |
| C7U A23G | 0.909 |
| C7U A23U | 0.955 |
| C7U A23C | 0.87 |
| C7U U43A | 0.828 |
| C7U U43C | 0.967 |
| C7U A40U | 0.683 |
| C7U A40C | 0.282 |

| Variant | self-cleavage |
| --- | --- |
| C7U A40G | 0.934 |
| C7U U61C | 0.492 |
| C7U U61A | 0.805 |
| C7A U69A | 0.875 |
| C7A U69G | 0.897 |
| A8C G11C | 0.779 |
| A8C G11A | 0.923 |
| A8C G11U | 0.768 |
| C7G C18U | 0.107 |
| C7G C18G | 0.116 |
| A8C C32G | 0.227 |
| A8C C32U | 0.954 |
| C7U G56C | 0.618 |
| C7U G56U | 0.849 |
| C7U G17U | 0.243 |
| C7U G17C | 0.122 |
| C7U G17A | 0.175 |
| C7G G68A | 0.824 |
| C7G G68U | 0.808 |
| C7G A13G | 0.238 |
| C7G A13U | 0.122 |
| C7G G25C | 0.0905 |
| C7G G25U | 0.0759 |
| C7G C34G | 0.0956 |

| Variant | self-cleavage |
| --- | --- |
| C7G C34A | 0.109 |
| C7G C34U | 0.325 |
| C7G U43G | 0.29 |
| C7G U43A | 0.274 |
| A8C C12U | 0.981 |
| A8C C12G | 0.798 |
| A8C C9U | 1.01 |
| A8C C9A | 1.01 |
| A8C C9G | 0.922 |
| C7U U69G | 1.03 |
| C7U U69A | 1.02 |
| C7U U69C | 1.06 |
| C7U C34A | 0.521 |
| C7A U67C | 0.807 |
| C7G A52U | 0.301 |
| C7G A52C | 0.42 |
| C7G C27G | 0.112 |
| C7G C27U | 0.0215 |
| C7G C22U | 0.128 |
| C7U U46C | 0.973 |
| C7G G14U | 0.0864 |
| C7G G14C | 0.0631 |
| C7U U20C | 0.158 |
| C7U U20A | 0.112 |

| Variant | self-cleavage |
| --- | --- |
| C7G U20G | 0 |
| C7G U20A | 0.163 |
| C7G U20C | 0.143 |
| A8C C24G | 0.488 |
| A8C C24U | 0.753 |
| C7U A13G | 0.936 |
| C7U A13C | 0.871 |
| C7G G56C | 0.211 |
| C7G G56A | 0.333 |
| C7U U26C | 1.01 |
| A8C A10C | 0.975 |
| A8C A10G | 0.941 |
| A8C A10U | 0.966 |
| C7U G31C | 0.222 |
| C7U G31U | 0.365 |
| C7U C32G | 0.148 |
| C7U C32A | 0.436 |
| C7G U46A | 0.453 |
| C7G U46C | 0.38 |
| A8C G14A | 0.669 |
| A8C G14C | 0.528 |
| C7A U55C | 0.208 |
| C7A U55G | 0.194 |
| C7A U55A | 0.333 |

| Variant | self-cleavage |
| --- | --- |
| C7U U62G | 0.595 |
| C7U U62C | 0.725 |
| C7U U62A | 0.638 |
| C7U G58C | 0.873 |
| C7U G58A | 0.928 |
| A8C A42G | 0.939 |
| A8C A42U | 0.918 |
| C7A U64A | 0.359 |
| C7A U64G | 0.355 |
| C7G C32U | 0.177 |
| C7G C32G | 0.106 |
| C7U A42U | 0.899 |
| C7U A42C | 0.901 |
| C7G U53A | 0.219 |
| C7G U53G | 0.147 |
| C7G U53C | 0.217 |
| C7G G11A | 0.281 |
| C7G U49G | 0.469 |
| C7G G30U | 0.564 |
| C7G C57G | 0.189 |
| C7G C57U | 0.158 |
| C7G G31A | 0.45 |
| C7G G31C | 0.101 |
| C7G G31U | 0.521 |

| Variant | self-cleavage |
| --- | --- |
| C7G C63A | 0.237 |
| C7G C63U | 0.316 |
| C7G C63G | 0.113 |
| C7G U64G | 0.232 |
| C7G U64C | 0.17 |
| C7G U64A | 0.279 |
| C7G A40G | 0.376 |
| C7G A40U | 0.161 |
| C7G A51U | 0.34 |
| C7G A51C | 0.306 |
| C7G A51G | 0.455 |
| A8C C39G | 0.927 |
| A8C C39A | 0.848 |
| A8C C39U | 0.947 |
| C7A U61C | 0.232 |
| C7A U61G | 0.378 |
| C7G C33A | 0.147 |
| C7G C33G | 0.146 |
| C7G U44A | 0.28 |
| C7G U44C | 0.282 |
| C7G U44G | 0.252 |
| C7U U36A | 0.194 |
| C7U U36G | 0.166 |
| C7U U36C | 0.806 |

| Variant | self-cleavage |
| --- | --- |
| A8C A59G | 1 |
| A8C A59U | 0.821 |
| C7U A8G | 0.918 |
| C7U A8U | 0.945 |
| C7U A8C | 0.954 |
| C7U G11U | 0.715 |
| C7U C9U | 1.06 |
| C7U C9A | 1.05 |
| C7U C9G | 1.01 |
| C7G A59G | 0.307 |
| C7G U55A | 0.124 |
| C7G U55G | 0.119 |
| C7G U55C | 0.185 |
| C7U C33G | 0.245 |
| C7U C33U | 0.939 |
| C7U C33A | 0.656 |
| C7U A15U | 0.534 |
| C7U A15G | 0.927 |
| C7U A15C | 0.693 |
| A8C C35G | 0.421 |
| A8C C35U | 0.976 |
| C7G A60G | 0.175 |
| C7G A60U | 0.187 |
